The test deals with Human fibrillin-2 recombinant C-terminal half (rFBN2-C) (human) (UniProt P35556). Put plainly: SPR; FBN2-Ct amine-coupled to a CM5 chip (1700 RU), ADAMTS6 constructs as analytes; Biacore 3000, 25 °C, 10 mM Hepes pH 7.4, 0.15 M NaCl, 2 mM CaCl2, 0.005% or 0.05% P20, 30 μl/min; steady state affinity method. Background: Surface plasmon resonance follows binding to a sensor surface in real time, without labels.
Sequence of Recombinant human ADAMTS6-Ct (residues 558-1117) (Q9UKP5 558-1117): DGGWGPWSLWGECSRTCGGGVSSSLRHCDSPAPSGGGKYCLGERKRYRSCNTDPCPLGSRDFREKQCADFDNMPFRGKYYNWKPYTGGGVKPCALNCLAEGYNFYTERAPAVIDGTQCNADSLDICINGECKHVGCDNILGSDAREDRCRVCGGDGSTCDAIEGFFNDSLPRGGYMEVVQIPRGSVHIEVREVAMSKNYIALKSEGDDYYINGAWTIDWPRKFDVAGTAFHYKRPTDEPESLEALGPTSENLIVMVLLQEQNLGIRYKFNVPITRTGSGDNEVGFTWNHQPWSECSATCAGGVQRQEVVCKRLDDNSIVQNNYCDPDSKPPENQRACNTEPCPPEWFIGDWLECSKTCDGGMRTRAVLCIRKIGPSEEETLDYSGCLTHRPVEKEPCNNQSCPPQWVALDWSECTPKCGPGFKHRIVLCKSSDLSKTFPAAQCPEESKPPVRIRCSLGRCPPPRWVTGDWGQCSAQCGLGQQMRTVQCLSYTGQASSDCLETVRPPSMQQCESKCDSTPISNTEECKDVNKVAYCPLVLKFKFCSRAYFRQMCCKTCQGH
Sequence of Recombinant human ADAMTS6-S4TSR (residues 717-1117) (Q9UKP5 717-1117): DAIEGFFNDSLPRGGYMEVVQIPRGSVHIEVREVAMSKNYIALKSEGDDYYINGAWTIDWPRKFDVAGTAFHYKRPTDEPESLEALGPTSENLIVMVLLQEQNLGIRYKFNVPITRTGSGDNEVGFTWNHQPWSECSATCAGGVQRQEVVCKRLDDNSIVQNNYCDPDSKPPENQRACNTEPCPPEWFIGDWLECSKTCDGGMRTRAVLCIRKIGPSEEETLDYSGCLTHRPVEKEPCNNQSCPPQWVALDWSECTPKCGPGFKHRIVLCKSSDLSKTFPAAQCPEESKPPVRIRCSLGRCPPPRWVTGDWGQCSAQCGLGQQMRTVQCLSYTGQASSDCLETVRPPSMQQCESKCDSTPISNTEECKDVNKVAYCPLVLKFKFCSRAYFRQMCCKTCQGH
Sequence of Recombinant human ADAMTS6-4TSR (residues 840-1117) (Q9UKP5 840-1117): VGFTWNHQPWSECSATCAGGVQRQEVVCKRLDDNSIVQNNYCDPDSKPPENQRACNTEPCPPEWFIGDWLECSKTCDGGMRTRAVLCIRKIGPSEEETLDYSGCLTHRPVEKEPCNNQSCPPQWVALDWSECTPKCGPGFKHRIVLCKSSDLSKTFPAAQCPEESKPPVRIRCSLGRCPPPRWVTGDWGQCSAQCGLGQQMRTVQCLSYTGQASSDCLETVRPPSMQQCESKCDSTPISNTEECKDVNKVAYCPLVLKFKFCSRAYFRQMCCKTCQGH
With “Recombinant human ADAMTS6-4TSR (residues 840-1117) (from UniProt Q9UKP5 840-1117) (domain or fragment)”, the equilibrium dissociation constant (Kd) – broadly, the free concentration of one partner at which half of the binding sites on the other are occupied at equilibrium, for simple one-to-one binding – was 122 nM.

With “Recombinant human ADAMTS6-Ct (residues 558-1117) (from UniProt Q9UKP5 558-1117) (domain or fragment)”, the dissociation constant Kd was determined as 436 nM.

Turning to “Recombinant human ADAMTS6-S4TSR (residues 717-1117) (from UniProt Q9UKP5 717-1117) (domain or fragment)”, the dissociation constant (Kd) was found to be 114 nM.

Source of the values: publication PMC9064305.
